For assay [1], the target named is T1, Taf2 with C-terminal streptavidin-binding peptide tag, subunit of Komagataella phaffii TFIID (Komagataella phaffii, UniProt F2QRH9 1-1571).
T1 construct: Taf2, TFIID subunit of the yeast Komagataella phaffii (formerly Pichia pastoris); residues 36 to 1194 modelled in the cryo-EM map; bait of the purification; also called SBP-tagged Taf2; source: K. phaffii strain with SBP-tagged Taf2, nuclear extract; purified (streptavidin beads, biotin elution, sucrose gradient)
Put plainly: affinity purification with mass spectrometry; TFIID purified from K. phaffii nuclear extract by the SBP tag at the C-terminus of Taf2 (streptavidin beads, 250 mM potassium acetate, elution with 10 mM biotin, 10–30% sucrose gradient); SDS-PAGE and mass spectrometry of the purified complex. Particulars: partners not purified.

Assay [2] has as its target T2, Taf8, subunit of Komagataella phaffii TFIID (Komagataella phaffii, UniProt F2QT15 1-517).
T2 construct: Taf8, TFIID subunit of the yeast Komagataella phaffii (formerly Pichia pastoris); putative helices placed in the cryo-EM map; also called KpTaf8; source: endogenous, K. phaffii nuclear extract; co-purified in TFIID by SBP-tagged Taf2 (streptavidin beads, sucrose gradient)
T2 sequence (looked up): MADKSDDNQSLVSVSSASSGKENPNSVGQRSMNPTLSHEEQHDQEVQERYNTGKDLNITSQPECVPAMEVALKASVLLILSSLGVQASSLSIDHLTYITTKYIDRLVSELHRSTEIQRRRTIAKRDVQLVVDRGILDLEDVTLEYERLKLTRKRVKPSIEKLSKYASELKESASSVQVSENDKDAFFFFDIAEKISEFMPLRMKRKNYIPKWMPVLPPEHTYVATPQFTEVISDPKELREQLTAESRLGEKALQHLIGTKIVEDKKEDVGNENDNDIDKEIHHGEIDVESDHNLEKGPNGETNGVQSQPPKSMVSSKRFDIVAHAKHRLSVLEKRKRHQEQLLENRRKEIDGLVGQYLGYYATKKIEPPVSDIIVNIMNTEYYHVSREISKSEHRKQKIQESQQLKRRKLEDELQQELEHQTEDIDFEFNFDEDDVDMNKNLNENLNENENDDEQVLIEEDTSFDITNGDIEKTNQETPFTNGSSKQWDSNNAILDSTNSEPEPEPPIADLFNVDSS
Put plainly: cryo-EM structure; purified TFIID (0.4 µM) with two-fold excess of TFIIA and 2.5–3-fold excess of pGAP promoter DNA, cross-linked with 0.1% glutaraldehyde; focused refinement of the lobes (Taf2 lobe 4.5 Å, Twin lobe 4.8 Å); homology models docked. The conditions noted are these: both partners purified.

Assay [3] deals with T3, Taf12, subunit of Komagataella phaffii TFIID (Komagataella phaffii, UniProt F2QSK7 1-609).
T3 construct: Taf12, TFIID subunit of the yeast Komagataella phaffii (formerly Pichia pastoris); histone-fold domain modelled in the cryo-EM map; source: endogenous, K. phaffii nuclear extract; co-purified in TFIID by SBP-tagged Taf2 (streptavidin beads, sucrose gradient)
T3 sequence (looked up): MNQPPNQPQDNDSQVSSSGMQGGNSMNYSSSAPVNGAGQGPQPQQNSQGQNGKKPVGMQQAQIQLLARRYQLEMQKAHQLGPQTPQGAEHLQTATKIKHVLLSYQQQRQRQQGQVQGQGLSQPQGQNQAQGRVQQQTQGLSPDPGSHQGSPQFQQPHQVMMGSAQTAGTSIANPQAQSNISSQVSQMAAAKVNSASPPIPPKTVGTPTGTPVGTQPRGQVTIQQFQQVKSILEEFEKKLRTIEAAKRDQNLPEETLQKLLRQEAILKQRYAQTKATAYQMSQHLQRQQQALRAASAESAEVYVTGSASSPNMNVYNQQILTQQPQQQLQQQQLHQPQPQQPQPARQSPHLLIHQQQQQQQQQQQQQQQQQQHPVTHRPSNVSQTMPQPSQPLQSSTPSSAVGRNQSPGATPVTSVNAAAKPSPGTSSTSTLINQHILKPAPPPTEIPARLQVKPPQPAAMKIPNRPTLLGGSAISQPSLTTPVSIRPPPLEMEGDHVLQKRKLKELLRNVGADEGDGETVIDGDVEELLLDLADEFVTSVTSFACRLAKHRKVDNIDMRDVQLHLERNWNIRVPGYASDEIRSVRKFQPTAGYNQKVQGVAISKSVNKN
Put plainly: cross-linking; 50 µg purified TFIID, 3 mM BS3, 2 h at 25 °C; trypsin, SCX fractionation, Orbitrap Fusion MS; pLink and Nexus, 5% FDR. The conditions noted are these: both partners purified.

Assay [4] concerns the target T4, Taf4, subunit of Komagataella phaffii TFIID (Komagataella phaffii, UniProt F2QWX2 1-411).
T4 construct: Taf4, TFIID subunit of the yeast Komagataella phaffii (formerly Pichia pastoris); histone-fold domain modelled in the cryo-EM map; source: endogenous, K. phaffii nuclear extract; co-purified in TFIID by SBP-tagged Taf2 (streptavidin beads, sucrose gradient)
T4 sequence (looked up): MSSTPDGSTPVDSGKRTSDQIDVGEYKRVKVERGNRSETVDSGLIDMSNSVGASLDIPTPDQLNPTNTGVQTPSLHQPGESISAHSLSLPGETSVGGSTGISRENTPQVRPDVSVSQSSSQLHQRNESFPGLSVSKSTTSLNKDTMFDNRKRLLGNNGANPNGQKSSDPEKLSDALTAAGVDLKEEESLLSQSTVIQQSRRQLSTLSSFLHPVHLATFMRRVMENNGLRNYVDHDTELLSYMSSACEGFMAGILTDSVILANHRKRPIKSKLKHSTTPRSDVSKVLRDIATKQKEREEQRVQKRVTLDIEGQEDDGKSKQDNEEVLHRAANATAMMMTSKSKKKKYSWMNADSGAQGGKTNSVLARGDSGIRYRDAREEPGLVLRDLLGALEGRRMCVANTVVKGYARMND
The description is as above. The conditions noted are these: both partners purified.

For assay [5], the target named is T5, Taf5, subunit of Komagataella phaffii TFIID (Komagataella phaffii, UniProt F2QWD3 1-722).
T5 construct: Taf5, TFIID subunit of the yeast Komagataella phaffii (formerly Pichia pastoris); WD40 repeat and NTD (residues 99–243) modelled in the cryo-EM map; two copies in holo-TFIID; source: endogenous, K. phaffii nuclear extract; co-purified in TFIID by SBP-tagged Taf2 (streptavidin beads, sucrose gradient)
T5 sequence (looked up): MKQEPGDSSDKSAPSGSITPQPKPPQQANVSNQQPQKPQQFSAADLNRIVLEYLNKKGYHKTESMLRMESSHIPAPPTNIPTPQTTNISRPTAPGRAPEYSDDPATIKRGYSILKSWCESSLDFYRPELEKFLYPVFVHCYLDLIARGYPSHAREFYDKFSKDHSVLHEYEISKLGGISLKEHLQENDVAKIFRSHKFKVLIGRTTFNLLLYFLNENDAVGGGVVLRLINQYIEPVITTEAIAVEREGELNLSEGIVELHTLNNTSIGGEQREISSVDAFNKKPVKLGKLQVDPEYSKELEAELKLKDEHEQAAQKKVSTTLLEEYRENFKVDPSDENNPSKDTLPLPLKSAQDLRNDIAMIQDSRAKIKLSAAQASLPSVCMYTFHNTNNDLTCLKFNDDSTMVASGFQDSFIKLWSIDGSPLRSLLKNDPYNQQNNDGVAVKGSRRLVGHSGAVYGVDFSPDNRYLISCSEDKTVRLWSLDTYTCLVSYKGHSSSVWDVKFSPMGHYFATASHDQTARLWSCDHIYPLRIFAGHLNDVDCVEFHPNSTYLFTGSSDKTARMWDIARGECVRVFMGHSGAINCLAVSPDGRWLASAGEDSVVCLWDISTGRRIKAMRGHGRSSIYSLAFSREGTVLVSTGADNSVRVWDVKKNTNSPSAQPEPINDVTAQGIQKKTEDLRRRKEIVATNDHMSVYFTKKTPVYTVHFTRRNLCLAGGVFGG
The assay is described as above. Particulars: both partners purified.

B1: Taf14, subunit of Komagataella phaffii TFIID (natural protein, UniProt F2QLE3 1-247, looked up)
chain: MSDLKRTVRITTTQNVLKDIPPIEKGFPMRKWSISVSLLNDQGKEIPATIFDKVTYHLHPTFENPVRVFKQPPFKIEEQGWGEFDMKIALTIAEKGGERKISHDLNFLKEKYIVDHVISVPTNKPGLLALLAESGPVPSSEGATTPGLSSVTEKRKTSLVGDVKAKKVKTSSGAVKGGVDLEKLADGLTKLSEDDLLGVVQMVTDNRSPEMNIKNDVDEGEFTMDLYSLPDSLLKSLWEYVKKHADV
notes: Taf14, yeast-specific TFIID subunit of Komagataella phaffii (formerly Pichia pastoris); YEATS domain docked in the Taf2 lobe of the cryo-EM map; source: endogenous, K. phaffii nuclear extract; co-purified in TFIID by SBP-tagged Taf2 (streptavidin beads, sucrose gradient)
With B1, the binding result in assay [1] and in assay [2] was “binds” in each case.

B2: Taf11, subunit of Komagataella phaffii TFIID (natural protein, UniProt F2QRB1 1-281, looked up)
chain: MSPKPESEIDQGPSVSVTSAEEKSRLEEVKDVHEDPKAEEGLVSAPQGSDTLGQEGKTEKEQNEAKGDIEEESEESAEEDEEEEEEIVDDQISYALNYLFQDIHEKIRLRETQRDTTQDEFELSRQEKVGLLLENFDQDQMTRYEFFRRANVNKSVAKRIVQSVLGQSINNNVALLVSTVSKMFVGEMVEKAKEVQSRRQKAQILEQISQRKAAIKNIRKRDLDESVVDQIMNSKRIRIPKDEPLSPEDIREAWRLYQLETNVLPSNQWRRQGGGDGNMFR
notes: Taf11, TFIID subunit of the yeast Komagataella phaffii (formerly Pichia pastoris); histone-fold domain modelled in the cryo-EM map; source: endogenous, K. phaffii nuclear extract; co-purified in TFIID by SBP-tagged Taf2 (streptavidin beads, sucrose gradient)
For B2, the binding result in assay [3], in assay [4] and in assay [5] was “binds” in each case.

The record behind these values is article PMC6220335, “Molecular structure of promoter-bound yeast TFIID” (Nature Communications, 2018).
